Legend:
[1] = target: the molecule itself; experiment: atomic force microscopy; mtNUCB1 alone plated on freshly cleaved mica, imaged in air in tapping mode; volume analysis of particles
[2] = target: Aβ42 synthetic peptide (UniProt P05067 672-713); experiment: cell-based or functional assay

B1: Ca2+-free mutant variant of soluble nucleobindin 1 (mtNUCB1) (natural protein, human, UniProt Q02818 31-461, looked up)
chain: RGAPNKEETPATESPDTGLYYHRYLQEVIDVLETDGHFREKLQAANAEDIKSGKLSRELDFVSHHVRTKLDELKRQEVSRLRMLLKAKMDAEQDPNVQVDHLNLLKQFEHLDPQNQHTFEARDLELLIQTATRDLAQYDAAHHEEFKRYEMLKEHERRRYLESLGEEQRKEAERKLEEQQRRHREHPKVNVPGSQAQLKEVWEELDGLDPNRFNPKTFFILHKINSDGVLDEQALEALFTKELEKVYDPKNEEDDMREMEEERLRMREHVMKNVKTNQDRLVTLEAFLASTQRKEFGDTGEGWETVEMHPAYTEEELRRFEEELAAREAELNAKAQRLSQETEALGRSQGRLEAQKRELQQAVLHMEQRKQQQQQQQGHKAPAAHPEGQLKFHPDTDDVPVPAPAGDQKEVDTSEKKLLERLPEVEVPQHL
notes: His tag cleaved with PreScission protease; also called CLABP; source: E. coli BL21 (DE3), purified (Ni-NTA, Superdex200 SEC); not shown: His6, N-terminal, cleaved
[1]
  stoichiometry N: 2
[2]
  MTT viability of PC12 cells treated for 24 h with 100 nM Aβ42 and increasing doses of mtNUCB1: IC50 of protection: 1400 nM

From paper PMC5318909, “Nucleobindin 1 binds to multiple types of pre-fibrillar amyloid and inhibits fibrillization” (Scientific Reports, 2017)
